{
  "source": "patent US8652467B2",
  "about": "“Dek protein compositions and methods of using the same” (The Regents of the University of Michigan, priority 2005, dated 2014)",
  "molecules": {"B1": {"name": "DEK: full-length recombinant DEK protein produced in baculovirus (protein, UniProt P35659 1-375, looked up)", "chain": "MSASAPAAEGEGTPTQPASEKEPEMPGPREESEEEEDEDDEEEEEEEKEKSLIVEGKREKKKVERLTMQVSSLQREPFTIAQGKGQKLCEIERIHFFLSKKKTDELRNLHKLLYNRPGTVSSLKKNVGQFSGFPFEKGSVQYKKKEEMLKKFRNAMLKSICEVLDLERSGVNSELVKRILNFLMHPKPSGKPLPKSKKTCSKGSKKERNSSGMARKAKRTKCPEILSDESSSDEDEKKNKEESSDDEDKESEEEPPKKTAKREKPKQKATSKSKKSVKSANVKKADSSTTKKNQNSSKKESESEDSSDDEPLIKKLKKPPTDEELKETIKKLLASANLEEVTMKQICKKVYENYPTYDLTERKDFIKTTVKELIS", "modifications": "full-length", "notes": "full-length recombinant DEK protein produced in baculovirus"}},
  "key": {"circular SV-40 DNA": {"system": "circular SV-40 DNA", "assay": "Topology assay with His-DEK and GST-ALY", "type": "biochemical", "conditions": "in the presence of 1 U topoisomerase I", "method": "10 ng (0.003 pmol) of circular SV-40 DNA was incubated with 2, 4 or 8 pmol of HIS-DEK (DEK) or GST-ALY (ALY) or either 2 or 4 pmol HIS-DEK and 2, 4 or 8 pmol GST-ALY in the presence of 1 U topoisomerase I. As a control for the functionality of topoisomerase I, SV-40 DNA was incubated either with or without topo I in the absence of GST-ALY and DEK. After 1 h at 37° C., the samples were treated with Proteinase K, and the DNA was purified and analyzed by agarose gel electrophoresis (0.8% at 2V/cm) and SybrGold staining."}, "[1]": {"system": "Human Microvascular Endothelial Cells (HMVEC)", "assay": "HMVEC chemotaxis (cell migration assay)", "type": "cell-based", "conditions": "3.5 μg purified recombinant DEK vs purification buffer control", "method": "Cell migration assay (See, e.g., Koch et al., Arthritis & Rheumatism 44: 31-40, (2001)) was performed with either 3.5 μg of purified, recombinant DEK diluted in PBS, or with just the purification buffer diluted in PBS (control). Nine high-power fields were assayed per sample, and results expressed as the number of cells migrating per well. Error bars show the mean deviation of two separate experiments (*p=0.0249)."}, "[2]": {"system": "monocyte-depleted peripheral white blood cells", "assay": "In vitro migration assay with monocyte-depleted peripheral white blood cells", "type": "cell-based, human", "method": "(A). […] Day 12 MDM grown in 10% serum were maintained for 12 h in serum-free conditioned media alone or with 10 ng/ml of recombinant IL-8. Supernatants were harvested, and secreted DEK detected in the supernatant by Western blot using DEK-specific monoclonal antibody. (B). DEK is a chemoattractant. Monocyte-depleted peripheral white blood cells were prepared. 1×10^5 cells in 100 μl RPMI were placed in the upper chambers of a 24-well chemotaxis microchamber plate with pore size of 3 μM. Lower chambers contained RPMI medium with various concentrations of recombinant DEK (made in baculovirus), recombinant GLI-2 control protein (also made in baculovirus), or no protein control (C′). After 1 h, the number of fluorescently labeled migrating cells in the lower chamber was determined at 485 nM/535 nm wavelengths by Tecan GENios (Phenix, Austria). The results are expressed as the average fold increase of the number of cells migrating toward DEK or GLI-2 compared to control wells containing medium only. Data shown using 34 nM and 68 nM DEK are the average of three different donors, while data using 136 nM DEK are the average of six different donors. […] (C). […] Fluorescence profiles were recorded by FACS analysis. The results are expressed as the average fold increase of the percentage of cells migrating toward DEK vs. control wells containing medium only. […]"}, "MDM and HeLa cells": {"system": "MDM and HeLa cells", "assay": "Uptake of recombinant DEK by cells", "type": "cell-based, human", "conditions": "MDM (12-day) and HeLa cells"}},
  "note": "Entries after “also recorded” stand apart in the source; their conditions may differ.",
  "data": [
    {"molecule": "B1", "values": [
      {"measurement": "induction of DNA supercoiling", "setting": "circular SV-40 DNA", "result": "induced supercoiling"},
      {"measurement": "endothelial cell chemotaxis", "setting": "[1]", "result": "does attract endothelial cells"},
      {"measurement": "migration of CD8+ cells and CD56+ cells towards DEK", "setting": "[2]; 79 nM DEK, 1 hour, FACS analysis, vs medium only", "result": "statistically significant"},
      {"measurement": "migration of white blood cells toward DEK", "setting": "[2]; 34, 68, 136 nM DEK in lower chamber, 1 h, vs GLI-2 control protein or media alone", "result": "statistically significant; also recorded: increase in a dose-dependent fashion"},
      {"measurement": "uptake by cells", "setting": "MDM and HeLa cells", "result": "can be taken up"}
    ]}
  ]
}
